The source of these data is article PMC7923638 (BMC Biotechnology, 2021).

One data set deals with T1, CsSDC (Camellia sinensis, UniProt A0A4S4DBB3).
T1 construct: gene SerDC; about 75 kDa on SDS-PAGE
In words: decarboxylase activity with and without […] PLP, UPLC. To be noted: 20 mM serine, 40 °C, pH 7.0. The format is biochemical.

Substrate in the data set “purified protein”: C[C@H](N)C(=O)O
The data set is described as follows: purified protein. To be noted: 45 °C, pH 8.0, 100 mM potassium phosphate, 0.1 mM PLP, 5 mM DTT, 1 mM K2EDTA, 10% glycerol, 1-100 mM substrate.

T1 sequence (A0A4S4DBB3 entry or part of it): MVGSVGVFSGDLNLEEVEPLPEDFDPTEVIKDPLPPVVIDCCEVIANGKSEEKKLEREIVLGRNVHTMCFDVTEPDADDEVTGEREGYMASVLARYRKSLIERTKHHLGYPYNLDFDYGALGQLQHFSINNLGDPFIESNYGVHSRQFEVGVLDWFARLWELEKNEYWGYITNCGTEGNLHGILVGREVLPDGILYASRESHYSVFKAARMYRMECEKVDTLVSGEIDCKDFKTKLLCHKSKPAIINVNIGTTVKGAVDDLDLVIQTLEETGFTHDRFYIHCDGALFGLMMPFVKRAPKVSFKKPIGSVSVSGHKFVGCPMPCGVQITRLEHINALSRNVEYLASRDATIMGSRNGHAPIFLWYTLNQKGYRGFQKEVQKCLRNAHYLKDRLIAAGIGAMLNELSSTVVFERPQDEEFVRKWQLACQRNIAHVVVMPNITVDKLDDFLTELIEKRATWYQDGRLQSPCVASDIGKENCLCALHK

On to `Cc1ncc(COP(=O)(O)O)c(C=O)c1O` [pyridoxal-5′-phosphate], for which the “decarboxylase activity with and without 0.1 mM PLP, UPLC” value on CsSDC was “activities of CsAlaDC and CsSDC are significantly dependent on the presence of PLP”.

B1: CsAlaDC (Camellia sinensis var. sinensis) (protein)
chain: MEGTVSVLSNVSKVELLSKCFDLITIPVEPLPPVVASNGVAGGETKNMKERDIVLGKNVHTTSLTITEPDVDDDSTSDMEAFMAGVLVRYRKTLIEKTKYHLGYPFNLDLDYGPLAELQHFAINNLGDPFIESNYGVHSRQFEVGVLDWFARLWEIEQKEYWGYITNGGTEGNLHGILIGREVFPDGIFYTSRESHYSIFKAARMYRMECVKVGTLINGEIDCADFKAKLLSNKDKPAIINLNIGTTVKGAVDDIDLVIQTLEECGFSHDRFYIHCDGALFGFMMPFLNRGPKITFKKPIGSVSVSGHKFMGCPTPCGVQITRLEHINALSRNVEYLASRDATITGSRNGHSPIILWYALNRKGFKGFQKEVQKCLRNAHYLKDRLREAGISAMLNELSSTVVFERPLDEEFVRRWQLACEGNMAHVIVMPNVTIEKLDEFLNELVQKRANWYNDGKAGPPCLAPDIGSENCDCDLHK
One may read the Km as the concentration of substrate that gives half-maximal velocity. The Vmax is the top rate of the reaction or transport when substrate is in excess. On to B1, for which, in the data set “purified protein”, the Km stood at 33.25 mM and the Vmax worked out at 3470 µmol/min/mg.
